# In patent US20240400715A1 (VIBRANT PHARMA, published 2024):
# Columns and labels:
# [1] = biological target: T1, human CD3ε/δ (ACRO systems, CDD-H52W1) (human, UniProt P07766 23-126; P04234 22-105); assay: serum-stability ELISA, Day 2 vs Day 0
# T1 construct: bought recombinant heterodimer; also called human CD3 epsilon/delta; Human CD3ε/CD3δ
# Description: (§1) The samples to be tested were centrifuged at 4° C. at 12000 rpm for 30 minutes to remove the precipitate. 200 μl of each sample to be tested (0.5 mg/ml) was collected in a 1.5 ml Eppendorf tube. An equal volume of human serum (GEMINI, H2OYOOK) was added, mixed thoroughly, and the mixture was incubated in a 37° C. constant temperature CO₂ incubator. For a total of 10 days, 40 μl samples was aspirated every day and stored at −20° C.
# (§2) Enzyme-linked immunosorbent assay (ELISA) was used to test the bispecific antibodies' binding to human CEA and human CD3 epsilon/delta antigen. The steps are as follows: the antigen human CD3ε/δ (ACRO systems, CDD-H52W1) and the recombinant tumor antigen human CEA (CEACAM-5/CD66e, ACRO systems, CE5-H5226) were diluted to 1 μg/ml with PBS, and then added to the 96-well plate at 100 μl per well. The wells were coated overnight at 4° C. After washing 3 times with 0.05% PBST, 200 μl 5% skimmed milk powder was added to each well and incubated at 37° C. for 2 h. After washing 3 times with 0.05% PBST, 100 μl primary antibody sample (10 μg/ml) was added to each well, and incubated at 37° C. for 2 h. After washing 3 times with 0.05% PBST, 100 μl (1:6000) diluted secondary antibody goat anti-human Fc-HRP (sigma, A2170) was added to each well, incubated at room temperature for 1 h. After washing 8 times with 0.05% PBST, 50 μl TMB color developing solution was added to each well, and incubated at room temperature for 10-15 min. 50 μl 1 mM HCl was added to each well to stop the color development. 450 nm Absorbance (OD) was read.
# (§3) The binding of antibodies to antigen was calculated according to the following formula: Binding (%)=[(ODdayn−ODb)/(ODday0−ODb)]×100%. ODdayn: experimental well (the protein was stored in the serum for n days); ODday0: control well (the protein was not stored in the serum); ODb: blank well (no primary antibody added).
# [2] = biological target: T1, human CD3ε/δ (ACRO systems, CDD-H52W1); assay: serum-stability ELISA, Day 9 vs Day 0
# Description: as §1, §2, §3
# [3] = biological target: T1, human CD3ε/δ (ACRO systems, CDD-H52W1); assay: serum-stability ELISA, Day 7 vs Day 0
# Description: as §1, §2, §3
# [4] = biological target: T1, human CD3ε/δ (ACRO systems, CDD-H52W1); assay: serum-stability ELISA, Day 6 vs Day 0
# Description: as §1, §2, §3
# [5] = biological target: T1, human CD3ε/δ (ACRO systems, CDD-H52W1); assay: serum-stability ELISA, Day 0 (reference)
# [6] = biological target: T1, human CD3ε/δ (ACRO systems, CDD-H52W1); assay: serum-stability ELISA, Day 1 vs Day 0
# Description: as §1, §2, §3
# [7] = biological target: T1, human CD3ε/δ (ACRO systems, CDD-H52W1); assay: serum-stability ELISA, Day 5 vs Day 0
# Description: as §1, §2, §3
# [8] = biological target: T1, human CD3ε/δ (ACRO systems, CDD-H52W1); assay: serum-stability ELISA, Day 10 vs Day 0
# Description: as §1, §2, §3
binder,measurement,setting,value
"308 (TA3), configuration of FIG. 1X (bispecific antibody, not shown: kappa light chain constant domain (CL)) heavy: EVQLVESGGGLVQPGGSLRLSCAASGYSFTGYTMNWVRQAPGKGLEWVALINPYKGVSTYNQKFKDRFTISVDKSKNTAYLQMNSLRAEDTAVYYCARSGYYGDSDWYFDVWGQGTLVTVSSASTKGPSVFPLAPCSRSTSESTAALGCLVKDYFPEPVTVSWNSGALTSGVHTFPAVLQSSGLYSLSSVVTVPSSSLGTKTYTCNVDHKPSNTKVDKRVESKYGPPCPPCPAPEAAGGPSVFLFPPKPKDTLMISRTPEVTCVVVDVSQEDPEVQFNWYVDGVEVHNAKTKPREEQFNSTYRVVSVLTVLHQDWLNGKEYKCKVSNKGLPSSIEKTISKAKGQPREPQVYTLPPCQEEMTKNQVSLWCLVKGFYPSDIAVEWESNGQPENNYKTTPPVLDSDGSFFLYSRLTVDKSRWQEGNVFSCSVMHEALHNHYTQKSLSLSLGGGGSGGGGSEVQLVESGGGFVQAGESLTLSCTSSTLTFTPYRMAWYRQAPGKQRDLVADISSGDGRTTNYADFAKGRFTISRDNIKNTVFLRMTNLKPEDTAVYYCNTFVSFVGIARSWGQGTQVTVSS ESKYGPPCPPCPAPEAAGGPSVFLFPPKPKDTLMISRTPEVTCVVVDVSQEDPEVQFNWYVDGVEVHNAKTKPREEQFNSTYRVVSVLTVLHQDWLNGKEYKCKVSNKGLPSSIEKTISKAKGQPREPQVCTLPPSQEEMTKNQVSLSCAVKGFYPSDIAVEWESNGQPENNYKTTPPVLDSDGSFFLVSRLTVDKSRWQEGNVFSCSVMHEALHNRFTQKSLSLSL light: DIQMTQSPSSLSASVGDRVTITCRASQDIRNYLNWYQQKPGKAPKLLIYYTSRLESGVPSRFSGSGSGTDYTLTISSLQPEDFATYYCQQGNTLPWTFGQGTKVEIK",Binding %,[1],100%
same,Binding %,[2],110%
same,Binding %,[3],109%
same,Binding %,[4],103%
same,Binding %,[5],100%
same,Binding %,[6],106%
same,Binding %,[7],107%
same,Binding %,[8],103%
"306 (TA7), configuration of FIG. 1W (bispecific antibody, not shown: kappa light chain constant domain (CL)) heavy: EVQLVQSGAEVKKPGASVKVSCKASGFTFTSYYIHWVRQAPGQGLEWIGWIYPENDNTKYNEKFKDRVTITADTSTSTAYLELSSLRSEDTAVYYCARDGYSRYYFDYWGQGTLVTVSSASTKGPSVFPLAPCSRSTSESTAALGCLVKDYFPEPVTVSWNSGALTSGVHTFPAVLQSSGLYSLSSVVTVPSSSLGTKTYTCNVDHKPSNTKVDKRVESKYGPPCPPCPAPEAAGGPSVFLFPPKPKDTLMISRTPEVTCVVVDVSQEDPEVQFNWYVDGVEVHNAKTKPREEQFNSTYRVVSVLTVLHQDWLNGKEYKCKVSNKGLPSSIEKTISKAKGQPREPQVYTLPPCQEEMTKNQVSLWCLVKGFYPSDIAVEWESNGQPENNYKTTPPVLDSDGSFFLYSRLTVDKSRWQEGNVFSCSVMHEALHNHYTQKSLSLSL EVQLVESGGGFVQAGESLTLSCTSSTLTFTPYRMAWYRQAPGKQRDLVADISSGDGRTTNYADFAKGRFTISRDNIKNTVFLRMTNLKPEDTAVYYCNTFVSFVGIARSWGQGTQVTVSSESKYGPPCPPCPAPEAAGGPSVFLFPPKPKDTLMISRTPEVTCVVVDVSQEDPEVQFNWYVDGVEVHNAKTKPREEQFNSTYRVVSVLTVLHQDWLNGKEYKCKVSNKGLPSSIEKTISKAKGQPREPQVCTLPPSQEEMTKNQVSLSCAVKGFYPSDIAVEWESNGQPENNYKTTPPVLDSDGSFFLVSRLTVDKSRWQEGNVFSCSVMHEALHNRFTQKSLSLSL light: DIVMTQSPDSLAVSLGERATINCKSSQSLLNSRTRKNYLAWYQQKPGQSPKLLIYWTSTRKSGVPDRFSGSGSGTDFTLTISSLQAEDVAVYYCKQSFILRTFGQGTKVEIK",Binding %,[1],110%
same,Binding %,[2],95.1%
same,Binding %,[3],105%
same,Binding %,[4],101%
same,Binding %,[5],100%
same,Binding %,[6],112%
same,Binding %,[7],115%
same,Binding %,[8],112%
